In patent US20110311550A1 (Scripps Research, published 2011):

What was measured:
Experiment in all cases: ELISA, lectin-captured E1E2 lysate, Ab 1 ug/ml
[1] = target: E1E2 complex (H77) with E1 mutation N209A (HCV genotype 1a, isolate H77, UniProt P27958 192-383; P27958 384-746)
[2] = target: E1E2 complex (H77) with E1 mutation D346A (HCV genotype 1a, isolate H77, UniProt P27958 192-383; P27958 384-746)
[3] = target: E1E2 complex (H77) with E1 mutation L221A (HCV genotype 1a, isolate H77, UniProt P27958 192-383; P27958 384-746)
[4] = target: E1E2 complex (H77) with E1 mutation G354A (HCV genotype 1a, isolate H77, UniProt P27958 192-383; P27958 384-746)
[5] = target: E1E2 complex (H77) with E1 mutation R296A (HCV genotype 1a, isolate H77, UniProt P27958 192-383; P27958 384-746)
[6] = target: E1E2 complex (H77) with E1 mutation D321A (HCV genotype 1a, isolate H77, UniProt P27958 192-383; P27958 384-746)
[7] = target: E1E2 complex (H77) with E1 mutation D206A (HCV genotype 1a, isolate H77, UniProt P27958 192-383; P27958 384-746)
[8] = target: E1E2 complex (H77) with E1 mutation A274G (HCV genotype 1a, isolate H77, UniProt P27958 192-383; P27958 384-746)
[9] = target: E1E2 complex (H77) with E1 mutation N196A/N209A (HCV genotype 1a, isolate H77, UniProt P27958 192-383; P27958 384-746)
[10] = target: E1E2 complex (H77) with E1 mutation S236A (HCV genotype 1a, isolate H77, UniProt P27958 192-383; P27958 384-746)
[11] = target: E1E2 complex (H77) with E1 mutation S307A (HCV genotype 1a, isolate H77, UniProt P27958 192-383; P27958 384-746)
[12] = target: E1E2 complex (H77) with E1 mutation Y309A (HCV genotype 1a, isolate H77, UniProt P27958 192-383; P27958 384-746)
[13] = target: E1E2 complex (H77) with E1 mutation V266A (HCV genotype 1a, isolate H77, UniProt P27958 192-383; P27958 384-746)
[14] = target: E1E2 complex (H77) with E1 mutation T314A (HCV genotype 1a, isolate H77, UniProt P27958 192-383; P27958 384-746)
[15] = target: E1E2 complex (H77) with E1 mutation N196A/N325A (HCV genotype 1a, isolate H77, UniProt P27958 192-383; P27958 384-746)
[16] = target: E1E2 complex (H77) with E1 mutation G350A (HCV genotype 1a, isolate H77, UniProt P27958 192-383; P27958 384-746)
[17] = target: E1E2 complex (H77) with E1 mutation G311A (HCV genotype 1a, isolate H77, UniProt P27958 192-383; P27958 384-746)
[18] = target: E1E2 complex (H77) with E1 mutation Y201A (HCV genotype 1a, isolate H77, UniProt P27958 192-383; P27958 384-746)
[19] = target: E1E2 complex (H77) with E1 mutation N325A (HCV genotype 1a, isolate H77, UniProt P27958 192-383; P27958 384-746)
[20] = target: E1E2 complex (H77) with E1 mutation L258A (HCV genotype 1a, isolate H77, UniProt P27958 192-383; P27958 384-746)
[21] = target: E1E2 complex (H77) with E1 mutation V246A (HCV genotype 1a, isolate H77, UniProt P27958 192-383; P27958 384-746)
[22] = target: E1E2 complex (H77) with E2 mutation E637A (HCV genotype 1a, isolate H77, UniProt P27958 192-383; P27958 384-746)

B1: N4 IgG (antibody, V domains shown)
VH: VQLLEQSGPEVKKPGDSLRISCKMSGDSLVTTWIGWVRQKPGQGLEWMGIINPGDSSTNIYPGDSATRYGPSFQGQVTISIDKSTSTAYLQWNNVKASDTGIYYCARHVPVPISGTFLWREREMHDFGYFDDWGQGTLVIVSS
VL: ELTLTQSPGTLSLSPGERATLSCRASQSVSNNYLAWYQQKPGQAPRLLIYGASSRATGIPDRFSGSGSGTGFTLIISRLEPEDFAVYYCQQYGSSSITFGQGTRLEIKR
notes: also called IgG N4
Binding relative to wt (%) [1]: 117%
Binding relative to wt (%) [2]: 83%
Binding relative to wt (%) [3]: 100%
Binding relative to wt (%) [4]: 90%
Binding relative to wt (%) [5]: 138%
Binding relative to wt (%) [6]: 92%
Binding relative to wt (%) [7]: 17%
Binding relative to wt (%) [8]: 71%
Binding relative to wt (%) [9]: 21%
Binding relative to wt (%) [10]: 81%
Binding relative to wt (%) [11]: 58%
Binding relative to wt (%) [12]: 32%
Binding relative to wt (%) [13]: 92%
Binding relative to wt (%) [14]: 83%
Binding relative to wt (%) [15]: 54%
Binding relative to wt (%) [16]: 68%
Binding relative to wt (%) [17]: 87%
Binding relative to wt (%) [18]: 7%
Binding relative to wt (%) [19]: 150%
Binding relative to wt (%) [20]: 89%
Binding relative to wt (%) [21]: 97%
Binding relative to wt (%) [22]: 67%
